Experimental data from the supplement of paper PMC10201428.
± gives the standard deviation of the averaged measurements.

Key:
[1] = system: VchCAST RNA-guided transposition machinery (E. coli BL21(DE3) host, lacZ target); test: relative integration efficiency (T-RL orientation) vs wild-type transposon end (log2 (normalized fold change)); transposon end mutated: right end (5 bp flank + 75 bp right end); higher = more efficient transposition
In short: (§1)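 Relative integration efficiency is a fold change of output over input barcode abundance, normalised to reference barcodes and log-transformed. Input plasmids and genomic integration junctions were PCR-amplified and Illumina-sequenced from E. coli BL21(DE3) co-transformed with a T7-driven effector plasmid and pUC57 donor pools of 1549 left-end or 1849 right-end transposon variants. Plating was done with 0.1 mM IPTG at 37°C for 18 h, with two biological output replicates and four reference barcodes.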

[2] = system: VchCAST RNA-guided transposition machinery (E. coli BL21(DE3) host, lacZ target); test: relative integration efficiency (T-LR orientation) vs wild-type transposon end (log2 (normalized fold change)); transposon end mutated: right end (5 bp flank + 75 bp right end); higher = more efficient transposition
In short: as §1

Row | Sequence | relative integration efficiency (log2) [1] | relative integration efficiency (log2) [2]
1 | ACATTTGTTGATACAACCATAAAATGATAATTACACCCATAAATTGATAATTATCACACCCATAAATTGATATTGCCTCTGATCATAGTCTGTGATTGTTATCACATTTCAGACCAAGCACCGACAC | -0.0662 ± 0.076 | 0.209 ± 0.1
2 | ACATTTGTTGATACAACCATAAAATGATAATTACACCCATAAATTGATAATTATCACACCCATAAATTGATATTGCCTCTGATCATAGTCTTGTGAGCGGATAACAAAGACCAACATGCACCGACAC | 0.141 ± 0.16 | -0.0553 ± 0.18
3 | ACATTTGTTGATACAACCATAAAATGATAATTACACCCATAAATTGATAATTATCACACCCATAAATTGATATTGCCTCTGATCATATTTAATAATTAATTTATATATTTAAGTCAGGCACCGACAC | 0.707 ± 0.19 | 0.961 ± 0.58
4 | ACATTTGTTGATACAACCATAAAATGATAATTACACCCATAAATTGATAATTATCACACCCATAAATTGATATTGCCTCTGATCATCAACCATAAAATGATAATTAAGTCAGACCAAGCACCGACAC | 0.146 ± 0.35 | 0.201 ± 0.068
5 | ACATTTGTTGATACAACCATAAAATGATAATTACACCCATAAATTGATAATTATCACACCCATAAATTGATATTGCCTCTGATCATGGTGTCTCGCTTCAGCAGTCAGACCAACATTGCACCGACAC | -0.125 ± 0.18 | -0.507 ± 0.025
6 | ACATTTGTTGATACAACCATAAAATGATAATTACACCCATAAATTGATAATTATCACACCCATAAATTGATATTGCCTCTGATCATTTACTTTTGGTTACATATTTAGTCAGACCAAGCACCGACAC | 0.0213 ± 0.19 | 0.713 ± 0.049
7 | ACATTTGTTGATACAACCATAAAATGATAATTACACCCATAAATTGATAATTATCACACCCATAAATTGATATTGCCTCTGATCATTTGCATAAAAATTCATCTAGTCAGACCAACAGCACCGACAC | -0.15 ± 0.36 | -0.0028 ± 0.22
8 | ACATTTGTTGATACAACCATAAAATGATAATTACACCCATAAATTGATAATTATCACACCCATAAATTGATATTGCCTCTGATCCAACCATAAAATGATAATTAATAGTCAGACCAAGCACCGACAC | 0.156 ± 0.25 | 0.046 ± 0.066
9 | ACATTTGTTGATACAACCATAAAATGATAATTACACCCATAAATTGATAATTATCACACCCATAAATTGATATTGCCTCTGATCGTTTTAAGGATGACTTCAGTCGCGCCGTACTTCGCACCGACAC | -0.207 ± 0.2 | -0.209 ± 0.13
10 | ACATTTGTTGATACAACCATAAAATGATAATTACACCCATAAATTGATAATTATCACACCCATAAATTGATATTGCCTCTGCAACCATAAAATGATAATTAATCATAGTCAGACCAAGCACCGACAC | -0.336 ± 0.3 | -0.129 ± 0.36
11 | ACATTTGTTGATACAACCATAAAATGATAATTACACCCATAAATTGATAATTATCACACCCATAAATTGATATTGCCTCTGGCGCTCTGTACCCCGCTCGGTCCTCCCGCGCATCGCGCACCGACAC | 0.194 ± 0.14 | -0.0593 ± 0.17
12 | ACATTTGTTGATACAACCATAAAATGATAATTACACCCATAAATTGATAATTATCACACCCATAAATTGATATTGCCTCTGGCTAGCACTATACCTAGGACTGAGCTAGCCGTCAACGCACCGACAC | -4.7 ± 0.55 | 0.877 ± 0.31
13 | ACATTTGTTGATACAACCATAAAATGATAATTACACCCATAAATTGATAATTATCACACCCATAAATTGATATTGCCTCTGGCTAGCATTATACCTAGGACTGAGCTAGCTGTCAACGCACCGACAC | -2.99 ± 0.27 | 1.91 ± 0.064
14 | ACATTTGTTGATACAACCATAAAATGATAATTACACCCATAAATTGATAATTATCACACCCATAAATTGATATTGCCTCTGGCTAGCATTGTACCTAGGACTGAGCTAGCCATAAACGCACCGACAC | -0.0442 ± 0.11 | 0.293 ± 0.3
15 | ACATTTGTTGATACAACCATAAAATGATAATTACACCCATAAATTGATAATTATCACACCCATAAATTGATATTGCCTCTGTACCGTTCGTATAATGTATGCTATACCAAGTTATTCGCACCGACAC | -0.351 ± 0.19 | -0.0326 ± 0.059
